Reference: patent US20210380675A1 (Kyowa Kirin, published 2021)

Columns and labels:
[1] = biological target: T1, human IL-36α(R12), truncated (human, UniProt Q9UHA7 6-158); test: cell-based or functional assay
T1 chain: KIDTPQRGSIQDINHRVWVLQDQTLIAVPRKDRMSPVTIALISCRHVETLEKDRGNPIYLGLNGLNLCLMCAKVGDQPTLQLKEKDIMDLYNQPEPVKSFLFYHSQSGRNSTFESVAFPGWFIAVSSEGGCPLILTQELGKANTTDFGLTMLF

[2] = biological target: T2, cynomolgus IL-36α, truncated (cynomolgus macaque (Macaca fascicularis), UniProt Q9UHA7 14-158 (human entry), limits assumed); test: cell-based or functional assay
T2 chain: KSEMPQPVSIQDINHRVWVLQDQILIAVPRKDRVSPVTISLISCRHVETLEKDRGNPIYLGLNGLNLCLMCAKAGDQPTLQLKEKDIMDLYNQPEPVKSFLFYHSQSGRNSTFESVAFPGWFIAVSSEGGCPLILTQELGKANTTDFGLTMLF

human IL-36γ, truncated [3] = biological target: T3, human IL-36γ, truncated (human, UniProt Q9NZH8 18-169); test: cell-based or functional assay
T3 sequence: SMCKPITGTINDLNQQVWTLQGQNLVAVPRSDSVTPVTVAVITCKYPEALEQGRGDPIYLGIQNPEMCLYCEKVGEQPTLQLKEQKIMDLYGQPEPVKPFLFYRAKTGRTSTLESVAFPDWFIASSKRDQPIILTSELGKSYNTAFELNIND

[4] = biological target: T4, cynomolgus IL-36γ, truncated (cynomolgus macaque (Macaca fascicularis), UniProt Q9NZH8 18-167 (human entry), limits assumed); test: cell-based or functional assay
T4 chain: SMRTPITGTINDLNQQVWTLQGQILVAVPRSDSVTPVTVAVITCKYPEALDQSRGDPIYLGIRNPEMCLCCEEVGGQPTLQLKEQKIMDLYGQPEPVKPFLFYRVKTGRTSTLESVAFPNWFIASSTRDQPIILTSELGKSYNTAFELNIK

[5] = biological target: T1, human IL-36α(R12), truncated; test: cell-based or functional assay
human IL-36γ, truncated [6] = biological target: T3, human IL-36γ, truncated; test: cell-based or functional assay; remark: listed apart in the source
[7] = biological target: T1, human IL-36α(R12), truncated; test: cell-based or functional assay
human IL-36γ, truncated [8] = biological target: T3, human IL-36γ, truncated; test: cell-based or functional assay; remark: listed apart in the source
[9] = biological target: T1, human IL-36α(R12), truncated; test: SPR, Biacore T200, antibody on chip, IL-36 as analyte, 1:1 Langmuir fit
Method: (§1) Antibodies were further tested for their binding to recombinant human or cynomolgus IL36α, IL-36γ in Biacore assays. In order to kinetically analyze the binding activity of the IL-36α and IL-36γ dual antagonist antibodies, the binding activity to human and cynomolgus IL-36α and IL-36γ was measured by surface plasmon resonance method (SPR). All of the following manipulations were carried out using a Biacore T200 (GE Healthcare Life Sciences, Pittsburgh, Pa.).
(§2) To determine antibody affinity to human and cynomolgus IL36, recombinant antibodies were immobilized on a CM5 sensor chip (cat# BR100012, GE Healthcare Life Sciences, Pittsburgh, Pa.) by an amine coupling chemistry. In particular, the kinetic assay was carried out by immobilizing on the chip approximately 2000 RU of recombinant antibody. Thereafter, recombinant human or cynomolgus IL36 proteins, serially diluted from a high concentration, were allowed to run at a flow rate of 30 μL/min onto the chip for 420 seconds. The dissociation time was 3600 seconds and the binding curves were measured at 25° C. Regeneration was performed with 10 mM glycine pH 1.5 for 30s. Alternatively, the analytes were injected with increasing concentrations in a single cycle, the surface not being regenerated between injections, using a method referred to as “single cycle kinetics.” In particular, either anti-human or anti-mouse Fc specific antibodies were immobilized on a CM5 sensor chip (cat# BR100012, GE Healthcare Life Sciences, Pittsburgh, Pa.) by an amine coupling chemistry. Thereafter, IL-36α and IL-36γ dual antagonist mouse/human chimeric or mouse antibodies were captured at approximately 200 RUs, followed by injections of increasing concentrations of recombinant human and cynomolgus IL36 proteins. The association time was 300 seconds, and the final dissociation time was 1200 seconds. At the end of the analyte injections, the surface was regenerated with either 3M MgCl₂ (anti-human Fc capture antibody) for 30 s or 10 mM glycine-HCl pH 1.7 for 180 s (anti-mouse IgG capture antibody).
(§3) The raw data were double referenced by subtraction of the signals from a reference flow cell without immobilized ligand and a buffer blank. The sensorgram corresponding to each concentration was obtained.

human IL-36γ, truncated [10] = biological target: T3, human IL-36γ, truncated; test: as above
Method: as §1, §2, §3

[11] = biological target: T2, cynomolgus IL-36α, truncated; test: as above
Method: as §1, §2, §3

[12] = biological target: T4, cynomolgus IL-36γ, truncated; test: as above
Method: as §1, §2, §3

[13] = biological target: T5, human IL-36α(Q12), truncated (human, UniProt Q9UHA7 6-158); test: as above
T5 construct: Untagged after removal of the His-SUMO tag
T5 sequence: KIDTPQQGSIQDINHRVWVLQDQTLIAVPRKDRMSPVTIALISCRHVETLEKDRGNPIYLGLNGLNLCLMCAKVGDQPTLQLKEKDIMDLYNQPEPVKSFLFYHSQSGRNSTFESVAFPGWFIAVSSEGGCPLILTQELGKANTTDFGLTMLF
Method: as §1, §2, §3

B1: 144L124B (antibody, V domains shown)
VH: EVQLQQSGAELVKPGASVKLSCTASGFNIKDTYIYWVKQRPEQGLEWIGRIDPANGYTRYDPKFQGKATMTADTSSNTAYLQLSSLTSEDTAVYYCARYEYYDSSFYFDYWGQGTTLTVSS
VL: QAVVTQESALTTSPGETVTLTCRSSTGAVTTSNYANWVQEKPDHLFTGLIGGTNNRAPGVPARFSGSLIGDKAALTITGAQTEDEAIYFCALWYSNHLVFGGGTKLTVL
notes: Mouse monoclonal from hybridoma; mouse IgG heavy and lambda light chain; Same VH and VL as 144L180A
- IC50 of IL-8 secretion, HaCaT, 10 nM human IL-36α, FIG. 1C [1]: 0.042 µM
- IC50 of IL-8 secretion, HaCaT, 10 nM cynomolgus IL-36α, FIG. 2B [2]: 0.0142 µM
- IC50 of IL-8 secretion, HaCaT, 10 nM human IL-36γ, FIG. 1F (human IL-36γ, truncated [3]): 0.0158 µM
- IC50 of IL-8 secretion, HaCaT, 10 nM cynomolgus IL-36γ, FIG. 2D [4]: 0.0283 µM
- IC50 of IL-8 secretion, primary human keratinocytes, 6.25 nM human IL-36α, FIG. 4A [5]: 0.0111 µM
- IC50 of IL-8 secretion, primary human keratinocytes, 8.4 nM human IL-36γ, FIG. 4C (human IL-36γ, truncated [6]): 0.0158 µM
- IC50 of IL-8 secretion, primary human monocytes, 20 nM human IL-36α, FIG. 5A [7]: 0.0442 µM
- IC50 of IL-8 secretion, primary human monocytes, 6 nM human IL-36γ, FIG. 5C (human IL-36γ, truncated [8]): 0.0191 µM
- IC50 of IL-8 secretion, primary human monocytes, 50 nM human IL-36γ, FIG. 5D (human IL-36γ, truncated [8]): 0.0413 µM
- Kd [9]: 0.00357 µM
- koff [9]: 0.0417 s⁻¹
- kon [9]: 1.17e+07 M⁻¹ s⁻¹
- Kd (human IL-36γ, truncated [10]): 0.000833 µM
- koff (human IL-36γ, truncated [10]): 0.000691 s⁻¹
- kon (human IL-36γ, truncated [10]): 829000 M⁻¹ s⁻¹
- Kd [11]: 0.00254 µM
- koff [11]: 0.0192 s⁻¹
- kon [11]: 7.56e+06 M⁻¹ s⁻¹
- Kd [12]: 0.000824 µM
- koff [12]: 0.000488 s⁻¹
- kon [12]: 593000 M⁻¹ s⁻¹

B2: m/h 144L249B (antibody, human IgG1, lambda, V domains shown)
VH: EVQLQQSGAELVKPGASVKLSCTASGFNIKDTYIYWVKQRPEQGLEWIGRIDPAIGTTRYDPKFQGKATLTADTSSNTAFLQLSSLTSEDTAVYYCARYDYSGSSFYFDYWGRGTTLTVSS
VL: QAVVTQESALTTSPGETVTLTCRSSTGAVTTSNYANWVQEKPDHLFTGLIGGTNNRAPGVPARFSGSLIGDKAALTITGAQTEDEAIYFCALWYSNHLVFGGGTKLTVLG
notes: Mouse VH/VL joined to human IgG1 constant and human Ig lambda (IGLC2) constant; also called chimeric mouse/human 144L249B
- IC50 of IL-8 secretion, primary human monocytes, 40 nM human IL-36α, FIG. 5B [7]: 0.0383 µM
- Kd [13]: 0.00102 µM
- koff [13]: 0.000825 s⁻¹
- kon [13]: 805000 M⁻¹ s⁻¹

B3: 144L180A (antibody, V domains shown)
VH: EVQLQQSGAELVKPGASVKLSCTASGFNIKDTYIYWVKQRPEQGLEWIGRIDPANGYTRYDPKFQGKATMTADTSSNTAYLQLSSLTSEDTAVYYCARYEYYDSSFYFDYWGQGTTLTVSS
VL: QAVVTQESALTTSPGETVTLTCRSSTGAVTTSNYANWVQEKPDHLFTGLIGGTNNRAPGVPARFSGSLIGDKAALTITGAQTEDEAIYFCALWYSNHLVFGGGTKLTVL
- IC50 of IL-8 secretion, HaCaT, 10 nM human IL-36α, FIG. 1C [1]: 0.0225 µM
- IC50 of IL-8 secretion, HaCaT, 10 nM cynomolgus IL-36α, FIG. 2B [2]: 0.0157 µM
- IC50 of IL-8 secretion, HaCaT, 10 nM human IL-36γ, FIG. 1F (human IL-36γ, truncated [3]): 0.0213 µM
- IC50 of IL-8 secretion, HaCaT, 10 nM cynomolgus IL-36γ, FIG. 2D [4]: 0.0303 µM
- IC50 of IL-8 secretion, primary human monocytes, 20 nM human IL-36α, FIG. 5A [7]: 0.0969 µM
- IC50 of IL-8 secretion, primary human monocytes, 6 nM human IL-36γ, FIG. 5C (human IL-36γ, truncated [8]): 0.00549 µM
- IC50 of IL-8 secretion, primary human monocytes, 50 nM human IL-36γ, FIG. 5D (human IL-36γ, truncated [8]): 0.0509 µM

B4: 144L133B (antibody, V domains shown)
VH: EVQLQQSGAELVKPGASVKLSCTASGFNIKDTYMYWVKQRPEQGLEWIGRIDPAIGTTRYDPKFQGKATLTADTSSNTAFLQLSSLTSEDTAVYYCARYDYSGSSFYFDYWGRGTTLTVSS
VL: QAVVTQESALTTSPGETVTLTCRSSTGAVTTSNYANWVQEKPDHLFTGLIGGTNNRAPGVPARFSGSLIGDKAALTITGAQTEDEAIYFCALWYSNHLVFGGGTKLTVL
- IC50 of IL-8 secretion, HaCaT, 10 nM human IL-36α, FIG. 1C [1]: 0.0287 µM
- IC50 of IL-8 secretion, HaCaT, 10 nM cynomolgus IL-36α, FIG. 2B [2]: 0.00961 µM
- IC50 of IL-8 secretion, HaCaT, 10 nM human IL-36γ, FIG. 1F (human IL-36γ, truncated [3]): 0.0129 µM
- IC50 of IL-8 secretion, HaCaT, 10 nM cynomolgus IL-36γ, FIG. 2D [4]: 0.0206 µM
- IC50 of IL-8 secretion, primary human monocytes, 20 nM human IL-36α, FIG. 5A [7]: 0.0395 µM
- IC50 of IL-8 secretion, primary human monocytes, 50 nM human IL-36γ, FIG. 5D (human IL-36γ, truncated [8]): 0.0396 µM

B5: m/h 144L124B (antibody, human IgG1, lambda, V domains shown)
VH: EVQLQQSGAELVKPGASVKLSCTASGFNIKDTYIYWVKQRPEQGLEWIGRIDPANGYTRYDPKFQGKATMTADTSSNTAYLQLSSLTSEDTAVYYCARYEYYDSSFYFDYWGQGTTLTVSS
VL: QAVVTQESALTTSPGETVTLTCRSSTGAVTTSNYANWVQEKPDHLFTGLIGGTNNRAPGVPARFSGSLIGDKAALTITGAQTEDEAIYFCALWYSNHLVFGGGTKLTVLG
notes: Mouse VH/VL joined to human IgG1 constant and human Ig lambda (IGLC2) constant; also called chimeric mouse/human 144L124B
- IC50 of IL-8 secretion, primary human monocytes, 40 nM human IL-36α, FIG. 5B [7]: 0.0275 µM
- Kd [13]: 0.00186 µM
- koff [13]: 0.0227 s⁻¹
- kon [13]: 1.22e+07 M⁻¹ s⁻¹
